B1: Cdc11-capped septin hetero-octamers (Cdc11-Cdc12-Cdc3-Cdc10-Cdc10-Cdc3-Cdc12-Cdc11) (complex)
chain 1: MSGIIDASSALRKRKHLKRGITFTVMIVGQSGSGRSTFINTLCGQQVVDTSTTILLPTDTSTEIDLQLREETVELEDDEGVKIQLNIIDTPGFGDSLDNSPSFEIISDYIRHQYDEILLEESRVRRNPRFKDGRVHCCLYLINPTGHGLKEIDVEFIRQLGSLVNIIPVISKSDSLTRDELKLNKKLIMEDIDRWNLPIYNFPFDEDEISDEDYETNMYLRTLLPFAIIGSNEVYEMGGDVGTIRGRKYPWGILDVEDSSISDFVILRNALLISHLHDLKNYTHEILYERYRTEALSGESVAAESIRPNLTKLNGSSSSSTTTRRNTNPFKQSNNINNDVLNPASDMHGQSTGENNETYMTREEQIRLEEERLKAFEERVQQELLLKRQELLQREKELREIEARLEKEAKIKQEE
chain 2: MSAATATAAPVPPPVGISNLPNQRYKIVNEEGGTFTVMLCGESGLGKTTFINTLFQTVLKRADGQQHRQEPIRKTVEIDITRALLEEKHFELRVNVIDTPGFGDNVNNNKAWQPLVDFIDDQHDSYMRQEQQPYRTKKFDLRVHAVLYFIRPTGHGLKPIDIETMKRLSTRANLIPVIAKADTLTAQELQQFKSRIRQVIEAQEIRIFTPPLDADSKEDAKSGSNPDSAAVEHARQLIEAMPFAIVGSEKKFDNGQGTQVVARKYPWGLVEIENDSHCDFRKLRALLLRTYLLDLISTTQEMHYETYRRLRLEGHENTGEGNEDFTLPAIAPARKLSHNPRYKEEENALKKYFTDQVKAEEQRFRQWEQNIVNERIRLNGDLEEIQGKVKKLEEQVKSLQVKKSHLK
chain 3: MSLKEEQVSIKQDPEQEERQHDQFNDVQIKQESQDHDGVDSQYTNGTQNDDSERFEAAESDVKVEPGLGMGITSSQSEKGQVLPDQPEIKFIRRQINGYVGFANLPKQWHRRSIKNGFSFNLLCVGPDGIGKTTLMKTLFNNDDIEANLVKDYEEELANDQEEEEGQGEGHENQSQEQRHKVKIKSYESVIEENGVKLNLNVIDTEGFGDFLNNDQKSWDPIIKEIDSRFDQYLDAENKINRHSINDKRIHACLYFIEPTGHYLKPLDLKFMQSVYEKCNLIPVIAKSDILTDEEILSFKKTIMNQLIQSNIELFKPPIYSNDDAENSHLSERLFSSLPYAVIGSNDIVENYSGNQVRGRSYPWGVIEVDNDNHSDFNLLKNLLIKQFMEELKERTSKILYENYRSSKLAKLGIKQDNSVFKEFDPISKQQEEKTLHEAKLAKLEIEMKTVFQQKVSEKEKKLQKSETELFARHKEMKEKLTKQLKALEDKKKQLELSINSASPNVNHSPVPTKKKGFLR
chain 4: MDPLSSVQPASYVGFDTITNQIEHRLLKKGFQFNIMVVGQSGLGKSTLINTLFASHLIDSATGDDISALPVTKTTEMKISTHTLVEDRVRLNINVIDTPGFGDFIDNSKAWEPIVKYIKEQHSQYLRKELTAQRERFITDTRVHAILYFLQPNGKELSRLDVEALKRLTEIANVIPVIGKSDTLTLDERTEFRELIQNEFEKYNFKIYPYDSEELTDEELELNRSVRSIIPFAVVGSENEIEINGETFRGRKTRWSAINVEDINQCDFVYLREFLIRTHLQDLIETTSYIHYEGFRARQLIALKENANSRSSAHMSSNAIQR

Columns and labels:
co-sedimentation = target: the molecule itself; assay: co-sedimentation
[1] = target: B1; assay: co-sedimentation

B1
binding result (co-sedimentation): binds

B2: His6-MBP-Hsl1(611–950) fusion protein (domain or fragment)
chain: RETVHDNEMPLPQLPKSPSRYSLSRRAIHASPSTKSIHKSLSRKNIAATVAARRTLQNSASKRSLYSLQSISKRSLNLNDLLVFDDPLPSKKPASENVNKSEPHSLESDSDFEILCDQILFGNALDRILEEEEDNEKERDTQRQRQNDTKSSADTFTISGVSTNKENEGPEYPTKIEKNQFNMSYKPSENMSGLSSFPIFEKENTLSSSYLEEQKPKRAALSDITNSFNKMNKQEGMRIEKKIQREQLQKKNDRPSPLKPIQHQELRVNSLPNDQGKPSLSLDPRRNISQPVNSKVESLLQGLKFKKEPASHWTHERGSLFMSEHVEDEKPVKASDVSIE
binding result [1]: binds
